{"source": "the domain aggregation screens of Martell et al. (2025)"}
{"experiment": "soluble fraction after stress (log2 fold change); higher = more stays soluble; pooled small domains, quantitative proteomics", "conditions": "stress: pH 4", "procedure,_shortened": "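Aggregation propensity is estimated from the fold change in each domain's soluble amount after acid stress. Pooled small-domain libraries were stressed at pH 4, and higher log2 values mean more stayed soluble.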"}
{"sequence": "HMTITPEVIVNHFKNLDLFFTKNGNYYEFKKKGTENILFKYGIYKQKPNIFVKIQRYPISSLSDLERIPI", "soluble fraction (log2)": -0.159}
{"sequence": "HMTIYLSENIKRLRLEKELTQETLSEFLGVTSQSVSNWERGESYPDITMLPEIADFFKVSVDELLGVNRAE", "soluble fraction (log2)": -1.66}
{"sequence": "HMTIYPFNPNYLKDYQAYRVGLSLKEIDALLDFRSSGQWINSAEDFQRITGVSDSVLEQLIPYFKFS", "soluble fraction (log2)": -1.73}
{"sequence": "HMTKASYKITTPSGVNVREGAGKRYAVRKAYPKGKTVTVTQTKEVNGNLWGKTSDGWFAIKYQGAVYASA", "soluble fraction (log2)": 0.2}
{"sequence": "HMTKDEFLTTLRTLIQDMPPEDRRDVMNYYTEYFEDAGPEREQEVLRQLGSPEQVAREVLGG", "soluble fraction (log2)": -0.459}
{"sequence": "HMTKDVIEIVDGNKFVFHKTIATDSVSSVINKYHISEADFRTWNELTGDMKVGEEYIVQLSLH", "soluble fraction (log2)": -0.576}
{"sequence": "HMTKKFQIQTLDKLNVRKVADWNASAVTTVKKGQILDVVAEVSPKNGSTKMYKLESGLYITASEKYVKKQG", "soluble fraction (log2)": "≥ 0.43"}
{"sequence": "HMTKLPLLVELSRIIPTDTWVKKIKFSLGSVEFVGISKSASRLLPIVENSSYFHDTKFIGTIVT", "soluble fraction (log2)": -0.274}
{"sequence": "HMTKNIIVTTSVKTSDELVEVAKNHALNLELDFNYRNKKTIKELLSSFDGLVVIYKNKISYFEDNSELF", "soluble fraction (log2)": 0.22}
{"sequence": "HMTKQDYLTALQQELNKNAVADAEDIVSEYEQHFQFKLADGFTEEEIAAKLGAPAQIALQFAG", "soluble fraction (log2)": -1.64}
{"sequence": "HMTKQRSIILDLLKANQDRHLTAEEMLELLNQNHTPVSKATLYRYLDMLVSQNAVRKFIIDDQPSAGYQYL", "soluble fraction (log2)": -0.0717}
{"sequence": "HMTKSTSMDLGGFMIVEGSETVRLGGQILQKDVDYTIDYFSGKINFISEEALNPGAEISVSYEENQ", "soluble fraction (log2)": -1.44}
{"sequence": "HMTKTEFLEALRRALNGNMAAASVEDNLKFYENYFYSEEAKGRSEAAVLSELGDPRILARTLIDAAER", "soluble fraction (log2)": -0.816}
{"sequence": "HMTKTEFLNLLEQRLFVLNDNERADLLSEYKQHIEMKIQSGLSEEEAIADFGDPEELIKELLEAY", "soluble fraction (log2)": -1.13}
{"sequence": "HMTKTFDSPEDADNDVLAKTLFQIFGVQSVYLKENFVTITKSNSVGWHTLMEKTGHTLEEHLKF", "soluble fraction (log2)": 0.0576}
{"sequence": "HMTKTKFLSKDMILSAMSRTKSNRAAARYLSVSFVHYKKYAREYKDETSGVSLWEKHKNQSGTGIPK", "soluble fraction (log2)": 0.0318}
{"sequence": "HMTKTSQEDEDIMRHLDELHTRWPFLGQRKLIEELKDQGIQIGRKRLRRLMKVMGIEAIAPK", "soluble fraction (log2)": 0.173}
{"sequence": "HMTKVMVPNVVGMSRGEAEEALRGVKLQVDLKREVSDDPEVKPEEVLRQTPDAQTSVPQGSVVTLYVADKP", "soluble fraction (log2)": -0.407}
{"sequence": "HMTKYEKKIFEIVNASRDHLTAEQVLAALREEYPAVSQATVYNNLKKLTSDGLLRKLTLADSPDRYD", "soluble fraction (log2)": 0.211}
{"sequence": "HMTLAAATESREYLADLARRLDAADHGDKTRIKAEAAGLLGWSMATLHARLARDVGWTSGRK", "soluble fraction (log2)": -0.166}
{"sequence": "HMTLDEFTDLMNLFKTGHIEQKPVILYGYNYWTSLKSWFEFNNMKFPEMYIDGIINTVDEFKILYNKIF", "soluble fraction (log2)": -0.77}
{"sequence": "HMTLGPKQMGEAIIKNLKEKTGKSLEEWSQRILIHELTDKKEIIDFLKNDNGLGHFQALKIFEHLNGK", "soluble fraction (log2)": -0.652}
{"sequence": "HMTLGQHIQALRKEAGYSQEALGEALGVTRQSISKWESDQAIPEVDKLVTLSRLFQVPVGVLLQVEQP", "soluble fraction (log2)": -0.166}
{"sequence": "HMTLGSVRTVRQVLDDGRLLVADSGGNVTLVRRAGTLAKENVNTGDRVSVDSSVRFALTLIPV", "soluble fraction (log2)": -0.00374}
{"sequence": "HMTLPEKSKRLFSQDDFWDQIFYRIGEGQSLREVSKYYKIPYTTIHDRIHSDEGIKLKYLEALTS", "soluble fraction (log2)": -0.592}
{"sequence": "HMTLPQEPTVLPRPLRVGDTVHIRTLDKDAEVLALPDARGMVAVRAGIINTKVKLTDLTLVEEK", "soluble fraction (log2)": "≥ 0.43"}
{"sequence": "HMTLRDRDQALEELWGQLADVPMDSETERLLEPFMGWGVGVSRDEIWHWFDRRHSKGIGHLLYS", "soluble fraction (log2)": -1.67}
{"sequence": "HMTLSENEKIIVDTIMKYQPLHIDVLNQQVKVDFYTLLGLLTKLEMEGIVLKNPGNIYKINTL", "soluble fraction (log2)": -0.865}
{"sequence": "HMTLTPEQQAARRSEIVDIALRLIAENGFQKTSMREIADLAKMGKSSLYDFFKTKDEIAVYAMEKK", "soluble fraction (log2)": -0.856}
{"sequence": "HMTMEFGEFLAKLRKERGYYQKEVAAYLNVTVATISNYEKNVHAPDLDTLVKLADFYDVSTDYLLQRT", "soluble fraction (log2)": -1.46}
{"sequence": "HMTMGAAEAQALKDEALELYRTGGTQEDVVRAIEMYEQAAEAGNAQAASDLAYLKANGVYETAMNN", "soluble fraction (log2)": -0.75}
{"sequence": "HMTMQQGTISRLNHSRGFGFLTTPDGEDLFFHRTNVHETPFARLQVGDRVTYDVQVTPRGTRADKVQLNM", "soluble fraction (log2)": -0.222}
{"sequence": "HMTMRFVVADGQNFGSIAQSKALEAVKKGNTEFNYKDVDYTVDIQSDDFYVVYQGRDIMGYASR", "soluble fraction (log2)": -1.89}
{"sequence": "HMTMTIEITVNGKTKTLVAELSLADLLRDLGMTKGRIAVELNGHIVPRSQFSSKTISNLDSIEIVQ", "soluble fraction (log2)": 0.138}
{"sequence": "HMTNADRYIGQEATVTEKISNELSTGAVRIGGLVWTARTVDNSEAEEGERVTVEAIEGAKLLVKRR", "soluble fraction (log2)": -0.0323}
{"sequence": "HMTNEPRLTNMGFNKMLIENYKMILEYQDFFIRISTQIGIININGFDLKLGEMTADEVLVTGKIESIDL", "soluble fraction (log2)": "≥ 0.43"}
{"sequence": "HMTNIDRLIGQTAIVKETINNKKEQGVVRINGMDWTARTEEIDEVILKGKPVEILDIQGIKLIVRKK", "soluble fraction (log2)": 0.161}
{"sequence": "HMTNIELYQRLLNLGFTPAQAKILLVQYDETRLTDNLNYVDFKKQQGNIENLPAYTTTIIKKDVRL", "soluble fraction (log2)": 0.0954}
